Reference: PMC10866937, “Aptamers targeting SARS-CoV-2 nucleocapsid protein exhibit potential anti pan-coronavirus activity”

target: SARS-CoV-2 nucleocapsid protein (NP) (SARS-CoV-2 (WT), UniProt P0DTC9 1-419); assay: CE; conditions: protein: commercial; label: 5'-FAM in CE (position not restated for aptamers)

Row | Binder | binding result
1 | GCAGGCAAGGCTCTACTGACCCGTTGCTTGATCGAC (ssDNA) [Seq-7] | binds

same assay, conditions: protein: commercial; label: FAM in CE

Row | Binder | binding result
2 | AGGGGGGACACCTAGATTGTTGGCCGTGCGGATACG (ssDNA) [Seq-333] | binds
3 | AGGGGGGACATCTGGAGTGTTGGCCGTGCGGATACG (ssDNA) [Seq-1022] | binds
4 | TCCACGGTCGGTCCCCTTACCACTGGTCCCTTTGTC (ssDNA) [Seq-4650] | binds
5 | ACTCCCACCTTTATTGAGGGCGGTGACGGGTTCCCTC (ssDNA) [Seq-59] | binds
6 | CACCTCTCACCCCACGGTTCTGGTCCTTCCCCGACG (ssDNA) [Seq-1280] | binds

target: HCoV-OC43 nucleocapsid protein (HCoV-OC43, UniProt P33469 1-448); assay: CE; Kd range for six aptamers 6.57-31.76 nM; conditions: protein: recombinant; label: 5'-FAM in CE (position not restated for aptamers)

Row | Binder | binding result
7 | GCAGGCAAGGCTCTACTGACCCGTTGCTTGATCGAC (ssDNA) [Seq-7] | binds

same assay, conditions: protein: recombinant; label: FAM in CE

Row | Binder | binding result
8 | AGGGGGGACACCTAGATTGTTGGCCGTGCGGATACG (ssDNA) [Seq-333] | binds
9 | AGGGGGGACATCTGGAGTGTTGGCCGTGCGGATACG (ssDNA) [Seq-1022] | binds
10 | TCCACGGTCGGTCCCCTTACCACTGGTCCCTTTGTC (ssDNA) [Seq-4650] | binds
11 | ACTCCCACCTTTATTGAGGGCGGTGACGGGTTCCCTC (ssDNA) [Seq-59] | binds
12 | CACCTCTCACCCCACGGTTCTGGTCCTTCCCCGACG (ssDNA) [Seq-1280] | binds

target: MERS-CoV nucleocapsid protein (MERS NP) (MERS-CoV, UniProt K9N4V7 1-411); assay: not given; conditions: protein: commercial; label: 5'-FAM in CE (position not restated for aptamers)

Row | Binder | binding result
13 | GCAGGCAAGGCTCTACTGACCCGTTGCTTGATCGAC (ssDNA) [Seq-7] | binds

same assay, conditions: protein: commercial; label: FAM in CE

Row | Binder | binding result
14 | AGGGGGGACACCTAGATTGTTGGCCGTGCGGATACG (ssDNA) [Seq-333] | binds
15 | AGGGGGGACATCTGGAGTGTTGGCCGTGCGGATACG (ssDNA) [Seq-1022] | binds
16 | TCCACGGTCGGTCCCCTTACCACTGGTCCCTTTGTC (ssDNA) [Seq-4650] | binds
17 | ACTCCCACCTTTATTGAGGGCGGTGACGGGTTCCCTC (ssDNA) [Seq-59] | binds
18 | CACCTCTCACCCCACGGTTCTGGTCCTTCCCCGACG (ssDNA) [Seq-1280] | binds

target: SARS-CoV nucleocapsid protein (SARS NP) (SARS-CoV, UniProt P59595 1-422); assay: not given; conditions: protein: commercial; label: 5'-FAM in CE (position not restated for aptamers)

Row | Binder | binding result
19 | GCAGGCAAGGCTCTACTGACCCGTTGCTTGATCGAC (ssDNA) [Seq-7] | binds

same assay, conditions: protein: commercial; label: FAM in CE

Row | Binder | binding result
20 | AGGGGGGACACCTAGATTGTTGGCCGTGCGGATACG (ssDNA) [Seq-333] | binds
21 | AGGGGGGACATCTGGAGTGTTGGCCGTGCGGATACG (ssDNA) [Seq-1022] | binds
22 | TCCACGGTCGGTCCCCTTACCACTGGTCCCTTTGTC (ssDNA) [Seq-4650] | binds
23 | ACTCCCACCTTTATTGAGGGCGGTGACGGGTTCCCTC (ssDNA) [Seq-59] | binds
24 | CACCTCTCACCCCACGGTTCTGGTCCTTCCCCGACG (ssDNA) [Seq-1280] | binds
